{"source": "patent US20220265772A1", "about": "“USES OF DAN FAMILY BMP ANTAGONISTS FOR INHIBITING OCULAR NEOVASCULARIZATION AND TREATING OCULAR CONDITIONS” (9636137 Canada Inc., priority 2019, published 2022)", "molecules": {"B1": {"name": "DAND5: human recombinant DAND5/COCO biologically active fragment produced in E. coli, predicted 18.2 kDa monomer, R&D systems 3047-CC-050 (protein)", "chain": "MRPEPQSPRPQSWAAANQTWALGPGALPPLVPASALGSWKAFLGLQKARQLGMGRLQRGQDEVAAVTLPLNPQEVIQGMCKAVPFVQVFSRPGCSAIRLRNHLCFGHCSSLYIPGSDPTPLVLCNSCMPARKRWAPVVLWCLTGSSASRRRVKISTMLIEGCHCSPKA"}}, "key": {"HUVECs [1]": {"system": "HUVECs", "experiment": "Free radicals / ROS in HUVECs (DCFDA, MitoSoxRed)", "format": "cell-based, human", "conditions": "HUVECs", "description": "FIG. 8 is a panel with graphs and pictures showing that Dand5 induces mitochondrial oxidative stress and alters ATP levels in HUVECs. FIG. 8A: HUVEC cells were treated with Dand5 in the presence or not of N-acetylcysteine (NAC) for up to 48 hours. Cells were then incubated with H2DCFDA. Hydrogen peroxide treated cells (H2O2) were included as a positive control. Fluorescence was measured at Ex: 485 nm and Em: 535 nm in a plate reader. Relative Fluorescence Units (RFU) were generated by normalizing the reading of each well to Hoescht staining (n=3,*p<0.05 **p<0.001). FIG. 8B: HUVEC cells were treated with Dand5 in for up to 48 hours. Cells were incubated with MitoSox Red. 3-nitro-proprionic acid (3-NP) treated cells were also examined as a positive control. Fluorescence was measured at Ex: 544 nm and Em: 590 nm. Relative Fluorescence Units (RFU) were generated by normalizing the reading of each well to Hoescht staining (n=3,*p<0.05). FIG. 8C: Primary culture of choroidal sprouts were treated with Dand5 in the absence or presence of NAC. FIG. 8D: Quantification of sprouting area by Image J. FIG. 8E: The ratio of NAD+ to NADH in whole cell extracts was determined using an Alcohol Dehydrogenase/Malate Dehydrogenase enzymatic cycling assay. Cells treated to hypoxic conditions (4% O2 for 3 hours) were included as a positive control (n=3,*p<0.05, **p<0.01). Likewise, glucose uptake was reduced in Dand5-treated HUVECs after 1 hour, while lactate levels were increased (lower panel). FIG. 8F: ATP levels were reduced in HUVECs exposed to Dand5 at 1, 6 and 24 hours (n=3,*p=0.05).\nWe exposed or not HUVECs to recombinant DAND5 and measured the concentration of free radicals using DCFDA and MitoSoxRed™. […] To further test this, we measure the NAD+/NADH ratio in cells treated or not with DAND5. […] Likewise, glucose uptake was reduced and lactate levels were increased in DAND5-treated HUVECs after 1 h (FIG. 8E, lower panel)."}, "HUVECs [2]": {"system": "HUVECs", "experiment": "Endothelial cell proliferation (phospho-histone H3, neutral red, EdU flow cytometry)", "format": "cell-based, human", "description": "Sub-confluent HUVECs were cultured overnight in starvation medium (EBM2-1% FBS) in the presence or absence of 60 ng/ml DAND5, followed by VEGF stimulation for 1 hour. HUVECs were subjected with a pulse of 5-ethynyl-2′-deoxyuridine (EdU) for 1 hour, and flow cytometry analysis of EdU incorporation was performed as previously described.\nThe effects of DAND5 on EC proliferation were assessed by treating sub-confluent HUVECs with complete EC medium for 18 hours with DAND5. Cell mitosis was measured by evaluating the proportion phospho-histone H3 (PH3)-positive ECs following DAND5 treatment."}}, "data": [{"molecule": "B1", "values": [{"measurement": "free radicals (DCFDA)", "setting": "HUVECs [1]; 24 h and 48 h post-treatment", "value": "induced elevation of free radicals 24 h and 48 h post-treatment"}, {"measurement": "mitochondrial reactive oxygen species (MitoSoxRed), time course", "setting": "HUVECs [1]; time-course analysis", "value": "induced before cytosolic ROS"}, {"measurement": "EdU incorporation", "setting": "HUVECs [2]; HUVECs, 60 ng/ml DAND5 overnight, VEGF stimulation", "value": "reduced Edu incorporation in response to VEGF stimulation"}, {"measurement": "proliferation of cultured ECs, cell numbers by neutral red incorporation", "setting": "HUVECs [2]; HUVECs, 6 days", "value": "prevented the proliferation of cultured ECs"}, {"measurement": "phospho-histone H3 (PH3) staining, mitotic index", "setting": "HUVECs [2]; sub-confluent HUVECs, complete EC medium, 18 hours", "value": "significant decrease in PH3 staining"}]}]}
